B1: Hairpin Ribozyme (parent)
chain: GUCCUCUUUCACGUGCGCGUGAAAGAGAGAAGUGAACCAGAGAAACACACGUUGUGGUAUAUUACCUGGUA

The series covers variants of B1. Nature of the series: self-cleavage, relative activity (ratio to wild type); higher = more cleavage; co-transcriptional.
C6U C38G: the self-cleavage amounted to 0.189.
The result for U7A C18A reads 1.12; that for C6A U8G, 0.447.
The result for C6U G42U reads 0.323; that for U5G C46U, 0.279.
Consider U5G C46G, for which the self-cleavage worked out at 0.243.
As for U7A G42U, the self-cleavage is 0.173.
The result for U7A G42C reads 0.357; that for C6U U7G, 0.449; that for U5G G19C, 0.202.
Next, C6G G13U: 0.27; C6U G13U: 0.6; U7A U62A: 0.177.
Next, C6A C37U: 0.505.
On to C6A C37A, for which the self-cleavage came out at 0.236.
Next, U5G C37U: 0.516; U5G C37A: 0.23; C6G A49G: 0.286.
The result for C6G A49U reads 0.107.
The result for C6U A24C reads 0.747; that for C6U, 0.826; that for C6G, 0.521.
For C6A, the self-cleavage was determined as 0.586.
The result for C6U C65G reads 0.232; that for U7A A31G, 0.77.
For U7A A31U, the self-cleavage is 0.11.
Take U7A A31C: the self-cleavage amounted to 0.0614.
Consider U7A C66U, for which the self-cleavage worked out at 0.461.
Next, U7A C66A: 0.269; C6A U14A: 0.612; C6G C10U: 0.305.
As for U7C A22G, the self-cleavage was 0.565.
Next, U7C A22C: 0.178; U7C: 0.894; U7A: 0.92.
Next, U7A G27U: 0.251; U7A G27C: 0.197; C6G C16U: 0.627.
Next, C6U G21A: 0.572; C6G G34A: 1.02.
Take C6U G32A: the self-cleavage amounted to 0.114.
Next, C6U G32C: 0.0823; C6U G32U: 0.0839; U5G G32C: 0.091.
The result for C6A G51A reads 0.765.
The result for C6U A44U reads 0.12; that for C6A A30G, 0.131; that for C6A U52C, 0.619.
C6A U52A: the self-cleavage came out at 0.588.
Next, U7A A36U: 0.568; U7A U20G: 0.705; C6U A30U: 0.152.
The result for U7A A23U reads 0.791; that for U7C A28G, 1.02.
Next, C6U C12G: 0.661.
Regarding C6U C12A, the self-cleavage was determined as 0.656.
The result for C6G A24G reads 0.337; that for C6G A24C, 0.192.
The result for C6U A41U reads 0.977.
The result for U5G U60G reads 0.353; that for U7A C16A, 0.911.
Take C6G U7C: the self-cleavage stood at 0.299.
Next, C6G U7G: 0.131; C6U U55C: 0.183.
The result for C6U U55G reads 0.375; that for C6U U55A, 0.217; that for C6G A43C, 0.11.
U7A G68C: the self-cleavage worked out at 0.146.
Next, U7A G68A: 0.28; C6G C66U: 0.173.
The result for C6G C66A reads 0.239; that for C6A A22G, 0.453.
The result for C6A A59G reads 0.178; that for U7A G54A, 0.535; that for U7A A30G, 0.305.
For C6A G57U, the self-cleavage stood at 0.246.
Next, C6A G57C: 0.0868.
The result for C6A G57A reads 0.107; that for C6G A35C, 0.499.
The result for C6A G25A reads 0.546; that for C6A G34C, 1.08; that for C6G A11G, 0.456.
As to C6U A47C, the self-cleavage turned out to be 0.283.
As for C6U A47G, the self-cleavage was 0.107.
In the case of C6U A47U, the self-cleavage amounted to 0.0966.
Next, U5G G21C: 0.177; C6G G19C: 0.328; C6G G19A: 0.45.
Regarding U5G G56A, the self-cleavage was determined as 0.0193.
The result for U5G G56C reads 0.124; that for C6G U52C, 0.595.
The result for C6A G40A reads 0.236.
The result for C6A G40U reads 0.103; that for C6A G40C, 0.109.
Consider C6U G57C, for which the self-cleavage came to 0.135.
The result for C6U C37U reads 0.6; that for U5G U33A, 0.17.
Next, U5G U33C: 0.0793; U5G C48A: 0.125; U5G C48G: 0.0331.
The result for C6U A45C reads 0.0819; that for C6U A49G, 0.571; that for U7A A47U, 0.0924.
In the case of U7A A47G, the self-cleavage came out at 0.0992.
Consider U7A A47C, for which the self-cleavage is 0.34.
The result for U5G C6A reads 0.321; that for U5G C6G, 0.224.
U5G C6U: the self-cleavage is 0.151.
For C6A G13A, the self-cleavage came out at 0.494.
Next, C6A G13U: 0.592; U7A A39U: 0.546.
The result for C6A A23G reads 0.387.
Turning to C6A G19A, the self-cleavage was found to be 0.599.
As to C6A A61G, the self-cleavage stood at 0.137.
The result for C6A A61U reads 0.182; that for C6A G68A, 0.176.
Consider C6A C10A, for which the self-cleavage turned out to be 0.404.
The result for U7A C12U reads 0.797; that for U7A C12A, 0.549; that for U7A U63G, 0.199.
Next, U7A U63C: 0.102; C6G C37G: 0.142; C6G C37A: 0.158.
Next, C6U U9A: 0.517; U7A C50A: 0.175; U7A C50G: 0.269.
Consider U7A G17U, for which the self-cleavage was 0.89.
The result for U7A U70A reads 0.766; that for U7A U70G, 0.921.
As for C6A A45C, the self-cleavage is 0.12.
Next, U5G G54U: 0.228; C6A A39G: 0.243; C6A A39U: 0.33.
Next, C6U C66U: 0.309; C6G A61C: 0.0806; C6A A24U: 0.487.
The result for C6U A61G reads 0.155; that for C6U A61U, 0.0757; that for C6A G69U, 0.121.
Take C6A G69C: the self-cleavage came out at 0.236.
In the case of U7A G21U, the self-cleavage worked out at 0.683.
With U7A G21C, the self-cleavage is 0.664.
The result for U7A C38A reads 0.28; that for U7A A59U, 0.182.
As for U5G U20G, the self-cleavage worked out at 0.238.
As to U5G U20A, the self-cleavage came to 0.279.
Next, U5G C50G: 0.165; U5G C50A: 0.184.
Next, C6G U14G: 0.374; C6G U14A: 0.634; C6U G69C: 0.178.
Next, C6U G69U: 0.256.
Take C6A C12G: the self-cleavage amounted to 0.623.
The result for C6G U20A reads 0.242; that for C6G C65G, 0.23; that for C6U A39G, 0.304.
The result for C6G A30C reads 0.156.
Regarding C6G A30G, the self-cleavage was 0.14.
Next, C6G C48U: 0.0659.
The result for C6A U9G reads 0.419; that for C6U G40C, 0.14; that for C6G C18A, 0.645.
The result for C6G C18G reads 0.395.
On to C6G C18U, for which the self-cleavage came out at 0.613.
For U5G U53C, the self-cleavage amounted to 0.0534.
For the variant C6G G56A, the self-cleavage came to 0.149.
Turning to C6G G56C, the self-cleavage was 0.175.

Values taken from the RNAGym collection of RNA variant scans (doi:10.7554/elife.80360).
